Biological target: PTHR-emGFP expressed in transfected HEK 293 cells
Experiment: cell-based or functional assay

PTHR1 internalization at 20 min, 100 nM compound, percent of vehicle only control (baseline=100%) (% of vehicle only control): 166
PTHR1 internalization at 40 min, 100 nM compound, percent of vehicle only control (baseline=100%) (% of vehicle only control): 177
PTHR1 internalization at 60 min, 100 nM compound, percent of vehicle only control (baseline=100%) (% of vehicle only control): 224
PTHR1 internalization at 180 min, 100 nM compound, percent of vehicle only control (baseline=100%) (% of vehicle only control): 175
Substance: PTH(1-38) (from UniProt P01270 32-69) (peptide)

Reference: patent US20090253630A1
